Measured values: article PMC5599542
Values belong to the substance of their own block, whether it stands above or below them.

Tests used:
[1] = target: GRB2 (UniProt P62993); assay: FLAG affinity purification, Western blot; details: reference: wild type
[2] = target: PTPN11/SHP2 (UniProt Q06124); assay: FLAG affinity purification, Western blot; details: reference: wild type; sites Y241,Y263

- binding against the reference ([1]; sites Y241): weaker
Substance: MPZL1 (PZR) (from UniProt O95297) Y241F

- binding against the reference [2]: lost
Substance: MPZL1 (PZR) (from UniProt O95297) Y241F/Y263F

- binding against the reference ([1]; sites Y263): weaker
Substance: MPZL1 (PZR) (from UniProt O95297) Y263F
